We go through 33 molecules from patent USRE47150 (Bayer, dated 2018).

First the molecules themselves.
T1: human tissue factor pathway inhibitor (TFPI) (human, UniProt P10646 29-304, limits assumed)
T1 construct: bought; also called hTFPI; human TFPI
T1 sequence (looked up): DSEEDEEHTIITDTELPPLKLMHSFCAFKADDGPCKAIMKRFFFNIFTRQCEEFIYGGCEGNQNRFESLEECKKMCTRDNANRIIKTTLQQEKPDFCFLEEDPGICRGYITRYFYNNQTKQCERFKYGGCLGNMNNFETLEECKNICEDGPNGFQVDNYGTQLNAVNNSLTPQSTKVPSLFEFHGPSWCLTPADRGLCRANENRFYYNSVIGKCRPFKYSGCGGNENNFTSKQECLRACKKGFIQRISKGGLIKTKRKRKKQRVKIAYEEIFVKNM

T2: mouse tissue factor pathway inhibitor (TFPI) (mouse, UniProt O54819 29-289, limits assumed)
T2 construct: bought; also called mTFPI; murine TFPI
T2 sequence (looked up): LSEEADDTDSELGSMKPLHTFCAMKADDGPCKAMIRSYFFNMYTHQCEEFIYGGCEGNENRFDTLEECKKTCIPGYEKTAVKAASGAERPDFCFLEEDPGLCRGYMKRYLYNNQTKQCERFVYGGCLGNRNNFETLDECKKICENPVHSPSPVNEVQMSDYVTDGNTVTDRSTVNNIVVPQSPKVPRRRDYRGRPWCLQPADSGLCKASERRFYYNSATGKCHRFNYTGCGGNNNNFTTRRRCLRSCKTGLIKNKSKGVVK

B1: 4B7 HC_D62L (Fab, V domains shown)
VH: QVQLQQSGPGLVKPSQTLSLTCAISGDSVSSNSAAWSWIRQSPGRGLEWLGIIYKRSKWYNLYAVSVKSRITINPDTSKNQFSLQLNSVTPEDTAVYYCARWHSDKHWGFDYWGQGTLVTVSS
VL: DIVMTQSPLSLPVTPGEPASISCRSSQSLVFSDGNTYLNWYLQKPGQSPQLLIYKGSNRASGVPDRFSGSGSGTDFTLKISRVEAEDVGVYYCQQYDSYPLTFGQGTKVEIKR
B2: 4B7 HC_D62S (Fab, V domains shown)
VH: B1 VH with L62S
VL: B1 VL
B3: 4B7 HC_S30R HC_S57K (Fab, V domains shown)
VH: B1 VH with S30R, S57K, L62D
VL: B1 VL
B4: 4B7 LC_D97T (Fab, V domains shown)
VH: B1 VH with L62D
VL: B1 VL with D97T
B5: 4B7 HC_H107M LC_F31I (Fab, V domains shown)
VH: B1 VH with L62D, H107M
VL: B1 VL with F31I
B6: 4B7 HC_K58M HC_D62N (Fab, V domains shown)
VH: B1 VH with K58M, L62N
VL: B1 VL
B7: 4B7 LC_F31M (Fab, V domains shown)
VH: B1 VH with L62D
VL: B1 VL with F31M
B8: 4B7 HC_N61G HC_D62V (Fab, V domains shown)
VH: B1 VH with N61G, L62V
VL: B1 VL
B9: 4B7 LC_N35L LC_G56A (Fab, V domains shown)
VH: B1 VH with L62D
VL: B1 VL with N35L, G56A
B10: 4B7 HC_G109A LC_D33R (Fab, V domains shown)
VH: B1 VH with L62D, G109A
VL: B1 VL with D33R
B11: 4B7 LC_N35V LC_G56D (Fab, V domains shown)
VH: B1 VH with L62D
VL: B1 VL with N35V, G56D
B12: 4B7 LC_N35T (Fab, V domains shown)
VH: B1 VH with L62D
VL: B1 VL with N35T
B13: 4B7 HC_H103D (Fab, V domains shown)
VH: B1 VH with L62D, H103D
VL: B1 VL
B14: 4B7 HC_D62V (Fab, V domains shown)
VH: B1 VH with L62V
VL: B1 VL
B15: 4B7 LC_D33R (Fab, V domains shown)
VH: B1 VH with L62D
VL: B1 VL with D33R
B16: 4B7 HC_S57K (Fab, V domains shown)
VH: B1 VH with S57K, L62D
VL: B1 VL
B17: 4B7 LC_D33F LC_Y54F (Fab, V domains shown)
VH: B1 VH with L62D
VL: B1 VL with D33F, Y54F
B18: 4B7 HC_Y112D (Fab, V domains shown)
VH: B1 VH with L62D, Y112D
VL: B1 VL
B19: 4B7 LC_D33F (Fab, V domains shown)
VH: B1 VH with L62D
VL: B1 VL with D33F
B20: 4B7 HC_D62N (Fab, V domains shown)
VH: B1 VH with L62N
VL: B1 VL
B21: 4B7 HC_N32E (Fab, V domains shown)
VH: B1 VH with N32E, L62D
VL: B1 VL
B22: 4B7 LC_S32R (Fab, V domains shown)
VH: B1 VH with L62D
VL: B1 VL with S32R
B23: 4B7 LC_D97M (Fab, V domains shown)
VH: B1 VH with L62D
VL: B1 VL with D97M
B24: 4B7 HC_D62Q (Fab, V domains shown)
VH: B1 VH with L62Q
VL: B1 VL
B25: 4B7 HC_S33G (Fab, V domains shown)
VH: B1 VH with S33G, L62D
VL: B1 VL
B26: 4B7 HC_H103G (Fab, V domains shown)
VH: B1 VH with L62D, H103G
VL: B1 VL
B27: 4B7 LC_N35L (Fab, V domains shown)
VH: B1 VH with L62D
VL: B1 VL with N35L
B28: 4B7 LC_F31I (Fab, V domains shown)
VH: B1 VH with L62D
VL: B1 VL with F31I
B29: 4B7 HC_H107M (Fab, V domains shown)
VH: B1 VH with L62D, H107M
VL: B1 VL
B30: 4B7 LC_S32Y (Fab, V domains shown)
VH: B1 VH with L62D
VL: B1 VL with S32Y
B31: 4B7 HC_N32D (Fab, V domains shown)
VH: B1 VH with N32D, L62D
VL: B1 VL
B32: 4B7 HC_N61G (Fab, V domains shown)
VH: B1 VH with N61G, L62D
VL: B1 VL
B33: 4B7 LC_N35I (Fab, V domains shown)
VH: B1 VH with L62D
VL: B1 VL with N35I

Residue numbers refer to the chain shown, from its start.

The first assay has as its target T1, human tissue factor pathway inhibitor …. The experiment in a line: competitive ELISA. Background: An ELISA detects its analyte on a solid surface through an enzyme-linked reagent.
Regarding B1, the variant/wild-type worked out at 6.8 ratio.
For the molecule B2, the variant/wild-type turned out to be 29.3 ratio.
With B3, the variant/wild-type is 1.6 ratio.
Regarding B4, the variant/wild-type stood at 1.8 ratio.
In turn, B5 registered a variant/wild-type of 1.7 ratio.
The molecule B6 yielded a variant/wild-type of 6.6 ratio.
As for B7, the variant/wild-type came to 1.7 ratio.
Same read-out and setting: for B8 the value was 8 ratio.
For the molecule B9, the variant/wild-type worked out at 3.1 ratio.
On the same count and under the same terms, as for B10, the figure is 3.8 ratio.
On to B11, for which the variant/wild-type was found to be 1.9 ratio.
In turn, B12 gave a variant/wild-type of 5.4 ratio.
Still for that read-out and setting: as for B13, the figure is 2.4 ratio; as for B14, 31.9 ratio; as for B15, 3.6 ratio.
On the same count and under the same terms, as for B16, the figure is 1.7 ratio; as for B17, 4.3 ratio; as for B18, 2.9 ratio.
B19 came in with a variant/wild-type of 5.3 ratio.
B20 returned a variant/wild-type of 52.3 ratio.
As to B21, the variant/wild-type was determined as 3.2 ratio.
B22 registered a variant/wild-type of 4.2 ratio.
For the molecule B23, the variant/wild-type was 2.4 ratio.
As to B24, the variant/wild-type worked out at 20.6 ratio.
On the same count and under the same terms, as for B25, the figure is 1.5 ratio; as for B26, 1.4 ratio.
Regarding B27, the variant/wild-type was found to be 2.1 ratio.
Molecule B28 showed a variant/wild-type of 9.1 ratio.
As to B29, the variant/wild-type stood at 8.1 ratio.
B30: the variant/wild-type is 2 ratio.
The molecule B31 returned a variant/wild-type of 3.8 ratio.
The same measure, in the same setting: for B32 the value was 2.2 ratio; for B33, 3.6 ratio.

The next assay deals with T2, mouse tissue factor pathway inhibitor …. Briefly: equilibrium ELISA.
B1 registered a variant/wild-type of 22.9 ratio.
As for B2, the variant/wild-type is 146 ratio.
Molecule B3 gave a variant/wild-type of 6.6 ratio.
Same read-out and setting: as for B4, the figure is 5.5 ratio.
In turn, B5 returned a variant/wild-type of 9.2 ratio.
Regarding B6, the variant/wild-type was determined as 15.2 ratio.
The molecule B7 yielded a variant/wild-type of 1.3 ratio.
Still for that read-out and setting: as for B8, the figure is 31.1 ratio.
In turn, B9 gave a variant/wild-type of 6.9 ratio.
Consider B10, for which the variant/wild-type was determined as 8 ratio.
In turn, B11 came in with a variant/wild-type of 8.2 ratio.
As to B12, the variant/wild-type was 3.4 ratio.
On the same count and under the same terms, as for B13, the figure is 12.9 ratio; as for B14, 95 ratio.
For B15, the variant/wild-type stood at 7.2 ratio.
Regarding B16, the variant/wild-type worked out at 6.5 ratio.
Still for that read-out and setting: as for B17, the figure is 7.9 ratio; as for B18, 5.7 ratio.
As to B19, the variant/wild-type worked out at 7 ratio.
B20 displayed a variant/wild-type of 146 ratio.
In turn, B21 registered a variant/wild-type of 2.1 ratio.
The molecule B22 yielded a variant/wild-type of 7.8 ratio.
For B23, the variant/wild-type stood at 1.3 ratio.
Molecule B24 gave a variant/wild-type of 142 ratio.
On to B25, for which the variant/wild-type amounted to 6.5 ratio.
Still for that read-out and setting: for B26 the value was 10.7 ratio; for B27, 6 ratio.
Regarding B28, the variant/wild-type was found to be 23.6 ratio.
As for B29, the variant/wild-type was determined as 5.6 ratio.
For B30, the variant/wild-type stood at 6.7 ratio.
Same read-out and setting: for B31 the value was 6 ratio; for B32, 1.4 ratio; for B33, 7.1 ratio.
